The source of these data is US20170253933A1, “COMPOSITIONS AND METHODS FOR TREATING AND DIAGNOSING CHEMOTHERAPY-RESISTANT CANCERS” (Genentech, Inc., priority 2014, published 2017).

This experiment relates to ES-2 cells. Kind of experiment: Chemotherapy resistance of ES-2 cells on protein-coated plates (Cell-Titre Glo viability, % growth benefit). The format is cell-based. The source says:
(A) Increased desmoplasia is correlated with POSTN expression and primary chemotherapy-resistance. Representative high magnification images of hematoxylin and eosin (H&E) staining of tumor specimens (upper panels) and POSTN ISH images (lower panel) are shown. Desmoplasia scores were defined as follows: 0=no desmoplasia, 1=few scattered desmoplastic foci abutting cancer cells, 2=several desmoplastic foci abutting cancer cells or moderate confluent (wider) desmoplasia, but not present throughout the section, 3=desmoplastic reaction throughout section, associated with most cancer cells. Labels: DS=desmoplastic stroma, NS=normal stroma, TC =tumor cells. Arrows point to examples of tumor cells. A dotted line encircles a region containing tumor cells. Size bars, 100 μm. (B) Summary of desmoplasia scores in 21 Plat-S primary, 18 Plat-R primary, and 21 Plat-R recurrent tumor specimens; (C) POSTN promotes chemotherapy-resistance in chemotherapy-sensitive ES2 ovarian cells in vitro. 96-well plates were coated with recombinant protein FN1 or POSTN or left uncoated before cells were plated into each well. 10 μM carboplatin or 10 nM taxol was then added to each well on the next day. Cell-Titre Glo® reagents were added at 72 hours after compound treatment to measure cell viability. The viability in coated wells was then compared with viability in uncoated wells to calculate % growth benefit. […]

Entries after “also recorded” stand apart in the source; their conditions may differ.

B1: POSTN: recombinant full-length POSTN (Cat #3548-F2, R&D Systems) used to coat culture plates (protein, UniProt Q15063 22-836, looked up)
Periostin: NNHYDKILAHSRIRGRDQGPNVCALQQILGTKKKYFSTCKNWYKKSICGQKTTVLYECCPGYMRMEGMKGCPAVLPIDHVYGTLGIVGATTTQRYSDASKLREEIEGKGSFTYFAPSNEAWDNLDSDIRRGLESNVNVELLNALHSHMINKRMLTKDLKNGMIIPSMYNNLGLFINHYPNGVVTVNCARIIHGNQIATNGVVHVIDRVLTQIGTSIQDFIEAEDDLSSFRAAAITSDILEALGRDGHFTLFAPTNEAFEKLPRGVLERIMGDKVASEALMKYHILNTLQCSESIMGGAVFETLEGNTIEIGCDGDSITVNGIKMVNKKDIVTNNGVIHLIDQVLIPDSAKQVIELAGKQQTTFTDLVAQLGLASALRPDGEYTLLAPVNNAFSDDTLSMDQRLLKLILQNHILKVKVGLNELYNGQILETIGGKQLRVFVYRTAVCIENSCMEKGSKQGRNGAIHIFREIIKPAEKSLHEKLKQDKRFSTFLSLLEAADLKELLTQPGDWTLFVPTNDAFKGMTSEEKEILIRDKNALQNIILYHLTPGVFIGKGFEPGVTNILKTTQGSKIFLKEVNDTLLVNELKSKESDIMTTNGVIHVVDKLLYPADTPVGNDQLLEILNKLIKYIQIKFVRGSTFKEIPVTVYTTKIITKVVEPKIKVIEGSLQPIIKTEGPTLTKVKIEGEPEFRLIKEGETITEVIHGEPIIKKYTKIIDGVPVEITEKETREERIITGPEIKYTRISTGGGETEETLKKLLQEEVTKVTKFIEGGDGHLFEDEEIKRLLQGDTPVRKLQANKKVQGSRRRLREGRSQ
Turning to B1, for the setting “ES-2 cells on coated plates, in the absence of chemotherapy treatment”, the “cell growth with coating alone” value was “small increase in cell growth”. Where the note is “ES-2 ovarian cancer cells on coated plates, 10 μM carboplatin or 10 nM paclitaxel, viability at 72 hours”, the “resistance to carboplatin or paclitaxel treatment (viability in coated wells vs uncoated wells, % growth benefit)” value was “became resistant to carboplatin and paclitaxel treatment; also recorded: significantly more resistant to carboplatin or paclitaxel treatment”.
